IntAct's records for PubMed 9753447

B1: Ferredoxin--NADP reductase (Anabaena sp. (strain PCC 7119)), P21890 (parent)
chain: MSNQGAFDGAANVESGSRVFVYEVVGMRQNEETDQTNYPIRKSGSVFIRVPYNRMNQEMQRITRLGGKIVTIQTVSALQQLNGRTTIATVTDASSEIAKSEGNGKATPVKTDSGAKAFAKPPAEEQLKKKDNKGNTMTQAKAKHADVPVNLYRPNAPFIGKVISNEPLVKEGGIGIVQHIKFDLTGGNLKYIEGQSIGIIPPGVDKNGKPEKLRLYSIASTRHGDDVDDKTISLCVRQLEYKHPESGETVYGVCSTYLTHIEPGSEVKITGPVGKEMLLPDDPEANVIMLATGTGIAPMRTYLWRMFKDAERAANPEYQFKGFSWLVFGVPTTPNILYKEELEEIQQKYPDNFRLTYAISREQKNPQGGRMYIQDRVAEHADELWQLIKNQKTHTYICGLRGMEEGIDAALSAAAAKEGVTWSDYQKDLKKAGRWHVETY
B2: Ferredoxin--NADP reductase (Anabaena sp. (strain PCC 7119)), P21890 (parent)
chain: B1 chain
partner: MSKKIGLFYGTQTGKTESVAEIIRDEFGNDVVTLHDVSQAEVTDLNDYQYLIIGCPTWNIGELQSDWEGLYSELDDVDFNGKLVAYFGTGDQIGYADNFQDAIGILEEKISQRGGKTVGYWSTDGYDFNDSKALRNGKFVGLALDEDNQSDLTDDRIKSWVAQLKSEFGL

Variants of: B1
Settings: with fer1_nosso petF

Effect of a mutation on the interaction, decreasing interaction:
K206S
K206E
K206Q

Variants of: B2
Settings: with flav_nosso isiB

Effect of a mutation on the interaction, decreasing interaction:
K206Q
K206E
K206S
